Measured values taken from US9976134B2, “Thermolysin variants” (Danisco US Inc., priority 2007, dated 2018).
Substitutions are numbered along the chain they refer to. Names and notes keep the numbering of the source.

B1: Y151D: single-substitution thermolysin variant (SEQ ID NO:3 numbering) (protein, listed as Geobacillus caldoproteolyticus)
chain: ITGTSTVGVGRGVLGDQKNINTTYSTYYYLQDNTRGNGIFTYDAKYRTTLPGSLWADADNQFFASYDAPAVDAHYYAGVTYDYYKNVHNRLSYDGNNAAIRSSVHYSQGYNNAFWNGSQMVYGDGDGQTFIPLSGGIDVVAHELTHAVTDDTAGLIYQNESGAINEAISDIFGTLVEFYANKNPDWEIGEDVYTPGISGDSLRSMSDPAKYGDPDHYSKRYTGTQDNGGVHINSGIINKAAYLISQGGTHYGVSVVGIGRDKLGKIFYRALTQYLTPTSNFSQLRAAAVQSATDLYGSTSQEVASVKQAFDAVGVK
B2: Y151S: single-substitution thermolysin variant (SEQ ID NO:3 numbering) (protein, listed as Geobacillus caldoproteolyticus)
chain: B1 chain with D151S
B3: Y151W: single-substitution thermolysin variant (SEQ ID NO:3 numbering) (protein, listed as Geobacillus caldoproteolyticus)
chain: B1 chain with D151W
B4: Y151H: single-substitution thermolysin variant (SEQ ID NO:3 numbering) (protein, listed as Geobacillus caldoproteolyticus)
chain: B1 chain with D151H
B5: Y151M: single-substitution thermolysin variant (SEQ ID NO:3 numbering) (protein, listed as Geobacillus caldoproteolyticus)
chain: B1 chain with D151M
B6: I156M: single-substitution thermolysin variant (SEQ ID NO:3 numbering) (protein, listed as Geobacillus caldoproteolyticus)
chain: B1 chain with D151Y, I156M
B7: T049D: single-substitution thermolysin variant (SEQ ID NO:3 numbering) (protein, listed as Geobacillus caldoproteolyticus)
chain: B1 chain with T49D, D151Y
B8: Y151Q: single-substitution thermolysin variant (SEQ ID NO:3 numbering) (protein, listed as Geobacillus caldoproteolyticus)
chain: B1 chain with D151Q
B9: Y151V: single-substitution thermolysin variant (SEQ ID NO:3 numbering) (protein, listed as Geobacillus caldoproteolyticus)
chain: B1 chain with D151V
B10: I156R: single-substitution thermolysin variant (SEQ ID NO:3 numbering) (protein, listed as Geobacillus caldoproteolyticus)
chain: B1 chain with D151Y, I156R
B11: T006C: single-substitution thermolysin variant (SEQ ID NO:3 numbering) (protein, listed as Geobacillus caldoproteolyticus)
chain: B1 chain with T6C, D151Y
B12: Y151E: single-substitution thermolysin variant (SEQ ID NO:3 numbering) (protein, listed as Geobacillus caldoproteolyticus)
chain: B1 chain with D151E
B13: T049I: single-substitution thermolysin variant (SEQ ID NO:3 numbering) (protein, listed as Geobacillus caldoproteolyticus)
chain: B1 chain with T49I, D151Y
B14: Y151R: single-substitution thermolysin variant (SEQ ID NO:3 numbering) (protein, listed as Geobacillus caldoproteolyticus)
chain: B1 chain with D151R

Key:
[1] = TIDE 2X 0.78 g/l, 6 gpg, pH 8.2, 30 min at 20°C, A405; variant vs wild-type thermolysin at same protein concentration
Method: Thermolysin containing protease samples were obtained from filtered broth of cultures grown in microtiter plates for 3 days at 37° C. with shaking at 280 rpm under humidified aeration.
• Thermolysin containing culture supernatants (˜100-200 μg protein per ml) • TIDE® 2× (nil enzymes) detergent (P&G) • Dilution Buffer (10 mM NaCl, 0.1 mM CaCl2, 0.005% TWEEN®-80) The equipment used was a Biomek FX Robot (Beckman Coulter), a SpectraMAX MTP Reader (type 340; Molecular Devices), and an iEMS incubator/shaker (Thermo/Labsystems). MTPs were obtained from Costar (type 9017). TIDE® 2× Liquid Detergent Preparation (US Conditions):
Milli-Q water was adjusted to 6 gpg water hardness using a (Ca/Mg 3:1) hardness stock solution (282.3 g/L CaCl2.2H20, 130.1 g/L MgCl2.6H2O), 0.78 g/1 detergent TIDE® 2× was added, and the detergent solution was stirred vigorously for at least 15 minutes. Then, 5 mM HEPES was added and the pH adjusted to 8.2.
Microswatches of ¼ inch circular diameter were obtained from CFT (Vlaardingen, The Netherlands).
Two microswatches were placed vertically into each well of a 96-well microtiter plate to expose the whole surface area (i.e., not flat on the bottom of the well).
The incubator was set to 20° C. The filtered culture broth samples were tested at an appropriate concentration by dilution with a mixture of 10 mM NaCl, 0.1 mM CaCl2, 0.005% TWEEN®-80 solution. The detergent solution was prepared as described above. Then, 190 μl of detergent solution were added to each well of the MTP, containing microswatches. To this mixture, 10 μl of diluted enzyme solution were added to each well (to provide a total volume of 200 μl/well). The MTP was covered with a plate seal and placed in an incubator for 30 minutes at 20° C., with agitation at 1400 rpm (iEMS incubator). Following incubation under the appropriate conditions, 100 μl of solution from each well was removed and placed into a new MTP. Subsequently this MTP, containing 100 μl of solution/well, was read at 405 nm in a MTP-Reader. Blank controls, containing 2 microswatches/well and detergent, without the addition of thermolysin containing samples, were also included in the test.
The observed absorbance value was corrected for the blank value (obtained after incubation of microswatches in the absence of added enzyme). The resulting absorbance was a measure for the hydrolytic activity. For each sample (thermolysin or a variant) the performance index (PI) was calculated. The performance index is a comparison of the performance of the variant (actual value) and the standard thermolysin enzyme (theoretical value) at the same protein concentration. In addition, the theoretical values were calculated, using the parameters of the Langmuir equation of the standard enzyme.
C. Stability Assay in the Presence of Detergent
In this example, experiments were conducted to determine the stain removal performance of various singly substituted thermolysin (also referred to herein as Proteinase-T or PrT) variants. As described in Example 1, the stain cleaning performance of thermolysin variants was done utilizing a blood/milk/ink (BMI) microswatch assay. Briefly the cleaning performance of chosen single-substitution thermolysin variants was assessed in a TIDE® 2× microswatch assay.

[2] = Stability assay in 25% TIDE 2X detergent with DTPA (residual Abz-AGLA-Nba protease activity); type: physicochemical; conditions: 60 min at 32°C; variant residual AGLA activity divided by wild-type residual activity
Method in brief: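 Thermolysin variant culture supernatants stressed in TIDE 2× detergent, with or without DTPA: 60 min at 32° C or 180 min at 50° C. Residual versus unstressed activity on Abz-AGLA-Nba read kinetically at 25° C (Ex 350/Em 420). Performance index is variant residual activity divided by wild-type thermolysin residual activity.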

[3] = Stability assay in 25% TIDE 2X detergent without DTPA (residual Abz-AGLA-Nba protease activity); type: physicochemical; conditions: 180 min at 50°C; variant residual AGLA activity divided by wild-type residual activity
Method: The stability of thermolysin and variants thereof was measured after incubation under defined conditions in the presence of 25% TIDE® 2× detergent. The initial and residual activity was determined.
MTPs were obtained from Costar (type 9017) and from Greiner (black plate, type 655076). Test Method Unstressed Conditions:
First, 20 μl thermolysin containing culture supernatant was diluted with 180 μl MES assay buffer. Then, 20 μl diluted supernatant was diluted further with 180 μl MES assay buffer. Subsequently 10 μl of this dilution was transferred into 190 μl AGLA-substrate solution in a pre-warmed plate (Greiner 655076) at 25° C. Any air bubbles present were blown away and the plate was measured according to the AGLA protease assay protocol described below.
First, 20 μl of culture supernatant was diluted with 180 μl 27.5% TIDE®+detergent solution and placed in the iEMS shaker. The plate covered with a plate seal was incubated for a total of 60 minutes at 32° C. at 900 rpm. In addition, 20 μl of culture supernatant was diluted with 180 μl 27.5% TIDE®−solution and placed in the iEMS shaker. This plate covered with a plate seal was incubated for a total of 180 minutes at 50° C. at 900 rpm.
Subsequently after the respective incubations, 20 μl of either of these solutions were diluted with 180 μl MES assay buffer and 10 μl of this dilution were diluted with 190 μl AGLA-substrate solution in a pre-warmed plate (Greiner 655076) at 25° C.
Fluorescence measurements were taken at excitation of 350 nm and emission of 420 nm. The spectrofluorometer software calculated the reaction rates (=slope) of the increase in fluorescence for each well to a linearly regressed line of (milli-) RFU/min. The ratio of the residual and initial AGLA activity was used to express the 25% TIDE® 2× stability as follows: Percentage of residual activity=[slope of stressed]*100/[slope of unstressed]
For each sample (thermolysin and variants thereof) the performance index was calculated by dividing the residual activity of the variant by the residual activity of thermolysin. The performance index compared the stability of the variant and the standard thermolysin enzyme (e.g., wild type or parental enzyme), determined under the same conditions.
In these experiments, the liberation of Abz-AG by protease cleavage of Abz-AGLA-Nba was monitored by fluorescence spectrometry (Ex. 350/Em. 420). The rate of appearance of Abz-AG was a measure of proteolytic activity.
The Abz-AGLA-Nba assay solution was prepared by adding 1 ml of the Abz-AGLA-Nba stock to 19 ml MES substrate buffer and mixed well for at least 2 minutes. Subsequently the thermolysin or variants thereof containing culture supernatants were diluted with MES assay buffer to a concentration of 1-6 μg protein per ml.
The assay was performed by adding 10 μl of diluted protease solution to each well, followed by the addition of 190 μl Abz-AGLA-Nba assay solution that was pre-equilibrated for at least 15 minutes at 25° C. The solutions were vigorously mixed, and the liberation of Abz-AG by protease cleavage of Abz-AGLA-Nba was monitored by fluorescence spectrometry at 25° C. in kinetic mode with excitation set at 350 nm and emission set at 420 nm. The rate of appearance of Abz-AG was a measure of proteolytic activity in the samples. The protease activity was expressed as RFU (relative fluorescence units·min^−1).
As described in Example 1, the stability of thermolysin variants was measured by determining the AGLA activity before and after incubation in the presence of TIDE® 2× heavy duty liquid (HDL) detergent at an elevated temperature. The tables contain the relative stability values compared to wild-type thermolysin, which is the quotient of the variant residual activity divided by the wild-type residual activity. A value greater than one indicates higher stability in the presence of detergent. […]

Molecule	PI (performance index), stain removal [1]	PI (relative stability), 25% TIDE 2X with DTPA [2]	PI (relative stability), 25% TIDE 2X without DTPA [3]
B1	1.08	1.12	–
B2	–	1.23	1.17
B3	1.22	1.02	–
B4	1.17	1.11	–
B5	1.06	1.09	–
B6	1.11	1.19	–
B7	–	1.05	1.28
B8	1.29	1.03	–
B9	1.25	1.11	–
B10	1.22	1.15	–
B11	–	1.03	1.07
B12	1.11	1.10	–
B13	1.24	1.01	–
B14	1.75	1.26	–
